Measured values: US20150368311A1 (Sanofi, published 2015)
Non-standard residues stand in square brackets, D forms with d. No end group written: not given here. Ala(4-thiazolyl) = N[C@@H](Cc1cscn1)C(=O)O; Nle = CCCC[C@H](N)C(=O)O

B1: SEQ ID NO: 7 (peptide)
peptide: [Ala(4-thiazolyl)]SQGTFTSDVSKQLESRRAQEFIEWLLATGPESGAPPPS-OH
modifications: N-terminus assumed
SMILES: CC[C@H](C)[C@H](NC(=O)[C@H](Cc1ccccc1)NC(=O)[C@H](CCC(=O)O)NC(=O)[C@H](CCC(N)=O)NC(=O)[C@H](C)NC(=O)[C@H](CCCNC(=N)N)NC(=O)[C@H](CCCNC(=N)N)NC(=O)[C@H](CO)NC(=O)[C@H](CCC(=O)O)NC(=O)[C@H](CC(C)C)NC(=O)[C@H](CCC(N)=O)NC(=O)[C@H](CCCCN)NC(=O)[C@H](CO)NC(=O)[C@@H](NC(=O)[C@H](CC(=O)O)NC(=O)[C@H](CO)NC(=O)[C@@H](NC(=O)[C@H](Cc1ccccc1)NC(=O)[C@@H](NC(=O)CNC(=O)[C@H](CCC(N)=O)NC(=O)[C@H](CO)NC(=O)[C@@H](N)Cc1cscn1)[C@@H](C)O)[C@@H](C)O)C(C)C)C(=O)N[C@@H](CCC(=O)O)C(=O)N[C@@H](Cc1c[nH]c2ccccc12)C(=O)N[C@@H](CC(C)C)C(=O)N[C@@H](CC(C)C)C(=O)N[C@@H](C)C(=O)N[C@H](C(=O)NCC(=O)N1CCC[C@H]1C(=O)N[C@@H](CCC(=O)O)C(=O)N[C@@H](CO)C(=O)NCC(=O)N[C@@H](C)C(=O)N1CCC[C@H]1C(=O)N1CCC[C@H]1C(=O)N1CCC[C@H]1C(=O)N[C@@H](CO)C(=O)O)[C@@H](C)O
B2: SEQ ID NO: 8 (peptide)
peptide: [Ala(4-thiazolyl)]SQGTFTSDISKQLESRRAQEFIEWLLATGPESGAPPPS-OH
modifications: N-terminus assumed
SMILES: CC[C@H](C)[C@H](NC(=O)[C@H](Cc1ccccc1)NC(=O)[C@H](CCC(=O)O)NC(=O)[C@H](CCC(N)=O)NC(=O)[C@H](C)NC(=O)[C@H](CCCNC(=N)N)NC(=O)[C@H](CCCNC(=N)N)NC(=O)[C@H](CO)NC(=O)[C@H](CCC(=O)O)NC(=O)[C@H](CC(C)C)NC(=O)[C@H](CCC(N)=O)NC(=O)[C@H](CCCCN)NC(=O)[C@H](CO)NC(=O)[C@@H](NC(=O)[C@H](CC(=O)O)NC(=O)[C@H](CO)NC(=O)[C@@H](NC(=O)[C@H](Cc1ccccc1)NC(=O)[C@@H](NC(=O)CNC(=O)[C@H](CCC(N)=O)NC(=O)[C@H](CO)NC(=O)[C@@H](N)Cc1cscn1)[C@@H](C)O)[C@@H](C)O)[C@@H](C)CC)C(=O)N[C@@H](CCC(=O)O)C(=O)N[C@@H](Cc1c[nH]c2ccccc12)C(=O)N[C@@H](CC(C)C)C(=O)N[C@@H](CC(C)C)C(=O)N[C@@H](C)C(=O)N[C@H](C(=O)NCC(=O)N1CCC[C@H]1C(=O)N[C@@H](CCC(=O)O)C(=O)N[C@@H](CO)C(=O)NCC(=O)N[C@@H](C)C(=O)N1CCC[C@H]1C(=O)N1CCC[C@H]1C(=O)N1CCC[C@H]1C(=O)N[C@@H](CO)C(=O)O)[C@@H](C)O
B3: SEQ ID NO: 5 (peptide)
peptide: [Ala(4-thiazolyl)]SQGTFTSDYSKQLESRRAQEFIEWLLAGGPESGAPPPS-OH
modifications: N-terminus assumed
SMILES: CC[C@H](C)[C@H](NC(=O)[C@H](Cc1ccccc1)NC(=O)[C@H](CCC(=O)O)NC(=O)[C@H](CCC(N)=O)NC(=O)[C@H](C)NC(=O)[C@H](CCCNC(=N)N)NC(=O)[C@H](CCCNC(=N)N)NC(=O)[C@H](CO)NC(=O)[C@H](CCC(=O)O)NC(=O)[C@H](CC(C)C)NC(=O)[C@H](CCC(N)=O)NC(=O)[C@H](CCCCN)NC(=O)[C@H](CO)NC(=O)[C@H](Cc1ccc(O)cc1)NC(=O)[C@H](CC(=O)O)NC(=O)[C@H](CO)NC(=O)[C@@H](NC(=O)[C@H](Cc1ccccc1)NC(=O)[C@@H](NC(=O)CNC(=O)[C@H](CCC(N)=O)NC(=O)[C@H](CO)NC(=O)[C@@H](N)Cc1cscn1)[C@@H](C)O)[C@@H](C)O)C(=O)N[C@@H](CCC(=O)O)C(=O)N[C@@H](Cc1c[nH]c2ccccc12)C(=O)N[C@@H](CC(C)C)C(=O)N[C@@H](CC(C)C)C(=O)N[C@@H](C)C(=O)NCC(=O)NCC(=O)N1CCC[C@H]1C(=O)N[C@@H](CCC(=O)O)C(=O)N[C@@H](CO)C(=O)NCC(=O)N[C@@H](C)C(=O)N1CCC[C@H]1C(=O)N1CCC[C@H]1C(=O)N1CCC[C@H]1C(=O)N[C@@H](CO)C(=O)O
B4: SEQ ID NO: 6 (peptide)
peptide: [Ala(4-thiazolyl)]SQGTFTSDYSKQLESRRAQEFIEWLLATGPESGAPPPS-OH
modifications: N-terminus assumed
SMILES: CC[C@H](C)[C@H](NC(=O)[C@H](Cc1ccccc1)NC(=O)[C@H](CCC(=O)O)NC(=O)[C@H](CCC(N)=O)NC(=O)[C@H](C)NC(=O)[C@H](CCCNC(=N)N)NC(=O)[C@H](CCCNC(=N)N)NC(=O)[C@H](CO)NC(=O)[C@H](CCC(=O)O)NC(=O)[C@H](CC(C)C)NC(=O)[C@H](CCC(N)=O)NC(=O)[C@H](CCCCN)NC(=O)[C@H](CO)NC(=O)[C@H](Cc1ccc(O)cc1)NC(=O)[C@H](CC(=O)O)NC(=O)[C@H](CO)NC(=O)[C@@H](NC(=O)[C@H](Cc1ccccc1)NC(=O)[C@@H](NC(=O)CNC(=O)[C@H](CCC(N)=O)NC(=O)[C@H](CO)NC(=O)[C@@H](N)Cc1cscn1)[C@@H](C)O)[C@@H](C)O)C(=O)N[C@@H](CCC(=O)O)C(=O)N[C@@H](Cc1c[nH]c2ccccc12)C(=O)N[C@@H](CC(C)C)C(=O)N[C@@H](CC(C)C)C(=O)N[C@@H](C)C(=O)N[C@H](C(=O)NCC(=O)N1CCC[C@H]1C(=O)N[C@@H](CCC(=O)O)C(=O)N[C@@H](CO)C(=O)NCC(=O)N[C@@H](C)C(=O)N1CCC[C@H]1C(=O)N1CCC[C@H]1C(=O)N1CCC[C@H]1C(=O)N[C@@H](CO)C(=O)O)[C@@H](C)O
B5: SEQ ID NO: 36 (peptide)
peptide: HSQGTFTSDLSKQ[Nle]ESRRAQEFIEWLLATGPESGAPPPS-OH
modifications: N-terminus assumed
SMILES: CCCC[C@H](NC(=O)[C@H](CCC(N)=O)NC(=O)[C@H](CCCCN)NC(=O)[C@H](CO)NC(=O)[C@H](CC(C)C)NC(=O)[C@H](CC(=O)O)NC(=O)[C@H](CO)NC(=O)[C@@H](NC(=O)[C@H](Cc1ccccc1)NC(=O)[C@@H](NC(=O)CNC(=O)[C@H](CCC(N)=O)NC(=O)[C@H](CO)NC(=O)[C@@H](N)Cc1c[nH]cn1)[C@@H](C)O)[C@@H](C)O)C(=O)N[C@@H](CCC(=O)O)C(=O)N[C@@H](CO)C(=O)N[C@@H](CCCNC(=N)N)C(=O)N[C@@H](CCCNC(=N)N)C(=O)N[C@@H](C)C(=O)N[C@@H](CCC(N)=O)C(=O)N[C@@H](CCC(=O)O)C(=O)N[C@@H](Cc1ccccc1)C(=O)N[C@H](C(=O)N[C@@H](CCC(=O)O)C(=O)N[C@@H](Cc1c[nH]c2ccccc12)C(=O)N[C@@H](CC(C)C)C(=O)N[C@@H](CC(C)C)C(=O)N[C@@H](C)C(=O)N[C@H](C(=O)NCC(=O)N1CCC[C@H]1C(=O)N[C@@H](CCC(=O)O)C(=O)N[C@@H](CO)C(=O)NCC(=O)N[C@@H](C)C(=O)N1CCC[C@H]1C(=O)N1CCC[C@H]1C(=O)N1CCC[C@H]1C(=O)N[C@@H](CO)C(=O)O)[C@@H](C)O)[C@@H](C)CC

These binders were tested against T1, human GLP-1 receptor (human, UniProt P43220 24-463) (assay: cell-based or functional assay).

Binder	EC50 hGLP-1 R [pM], cAMP formation [pM]
B1	4190
B2	5800
B3	2190
B4	9300

What follows are binders tested against T2, human glucagon receptor (human, UniProt P47871 26-477) (assay: cell-based or functional assay).
T2 sequence (P47871 26-477): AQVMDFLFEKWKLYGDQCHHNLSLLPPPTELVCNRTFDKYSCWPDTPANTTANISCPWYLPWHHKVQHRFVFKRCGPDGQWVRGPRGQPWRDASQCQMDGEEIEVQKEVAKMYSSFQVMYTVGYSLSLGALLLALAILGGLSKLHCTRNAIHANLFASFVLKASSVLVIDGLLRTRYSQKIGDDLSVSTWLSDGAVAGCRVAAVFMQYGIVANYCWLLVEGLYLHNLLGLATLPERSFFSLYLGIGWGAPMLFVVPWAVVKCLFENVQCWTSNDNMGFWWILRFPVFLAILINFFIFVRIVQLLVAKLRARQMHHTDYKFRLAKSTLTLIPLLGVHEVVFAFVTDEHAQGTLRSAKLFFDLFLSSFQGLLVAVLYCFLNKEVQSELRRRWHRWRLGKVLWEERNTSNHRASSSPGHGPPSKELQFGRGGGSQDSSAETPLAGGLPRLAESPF

Binder	EC50 hGLUC R [pM], cAMP formation [pM]
B1	2.4
B2	2.2
B3	0.6
B4	0.5

Molecular target: T1, human GLP-1 receptor
Test: cell-based or functional assay
Remark: another data set of the same source

Binder	EC50 hGLP-1R, cAMP formation [nM]
B1	4.19
B2	5.8
B5	0.358
B3	2.19
B4	9.3

Molecular target: T2, human glucagon receptor
Test: cell-based or functional assay
Remark: another data set of the same source

Binder	EC50 hGlucagon-R, cAMP formation [nM]
B1	0.0024
B2	0.0022
B5	0.0014
B3	0.0006
B4	0.0005
